Measurements: patent US20230250154A1 (CYTONICS, published 2023)

T1: Cathepsin G (UniProt P08311 21-244)
T1 sequence (looked up): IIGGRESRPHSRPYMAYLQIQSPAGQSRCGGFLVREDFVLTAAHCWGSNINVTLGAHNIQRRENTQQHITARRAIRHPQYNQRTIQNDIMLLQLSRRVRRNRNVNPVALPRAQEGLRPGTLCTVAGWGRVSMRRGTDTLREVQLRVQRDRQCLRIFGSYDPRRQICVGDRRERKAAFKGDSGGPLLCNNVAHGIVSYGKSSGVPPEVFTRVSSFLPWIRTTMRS

T2: ADAMTS4 (human, UniProt O75173 213-685, limits assumed)
T2 sequence (looked up): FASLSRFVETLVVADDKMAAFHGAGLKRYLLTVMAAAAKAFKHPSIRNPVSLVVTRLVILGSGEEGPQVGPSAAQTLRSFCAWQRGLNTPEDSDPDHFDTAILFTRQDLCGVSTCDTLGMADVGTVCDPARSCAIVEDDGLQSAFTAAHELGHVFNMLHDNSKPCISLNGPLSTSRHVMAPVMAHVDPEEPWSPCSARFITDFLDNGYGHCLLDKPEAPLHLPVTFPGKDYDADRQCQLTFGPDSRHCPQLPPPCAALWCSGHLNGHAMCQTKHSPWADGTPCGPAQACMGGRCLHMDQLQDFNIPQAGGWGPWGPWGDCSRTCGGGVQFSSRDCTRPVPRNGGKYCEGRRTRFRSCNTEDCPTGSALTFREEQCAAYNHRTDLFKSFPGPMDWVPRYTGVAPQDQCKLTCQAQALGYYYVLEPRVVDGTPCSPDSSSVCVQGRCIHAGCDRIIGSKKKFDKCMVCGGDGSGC

T3: MMP1 (human, UniProt P03956 100-469, limits assumed)
T3 sequence (looked up): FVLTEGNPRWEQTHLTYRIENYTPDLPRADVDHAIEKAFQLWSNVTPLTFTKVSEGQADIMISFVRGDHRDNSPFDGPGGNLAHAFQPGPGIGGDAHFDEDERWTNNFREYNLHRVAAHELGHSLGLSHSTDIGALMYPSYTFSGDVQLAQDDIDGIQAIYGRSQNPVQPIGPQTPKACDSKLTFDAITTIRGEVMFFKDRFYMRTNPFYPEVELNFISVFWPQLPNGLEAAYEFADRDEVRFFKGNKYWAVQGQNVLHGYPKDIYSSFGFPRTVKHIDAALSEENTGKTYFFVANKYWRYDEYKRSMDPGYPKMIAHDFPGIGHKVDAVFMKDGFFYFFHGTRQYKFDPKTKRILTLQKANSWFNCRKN

T4: MMP2 (human, UniProt P08253 110-660, limits assumed)
T4 sequence (looked up): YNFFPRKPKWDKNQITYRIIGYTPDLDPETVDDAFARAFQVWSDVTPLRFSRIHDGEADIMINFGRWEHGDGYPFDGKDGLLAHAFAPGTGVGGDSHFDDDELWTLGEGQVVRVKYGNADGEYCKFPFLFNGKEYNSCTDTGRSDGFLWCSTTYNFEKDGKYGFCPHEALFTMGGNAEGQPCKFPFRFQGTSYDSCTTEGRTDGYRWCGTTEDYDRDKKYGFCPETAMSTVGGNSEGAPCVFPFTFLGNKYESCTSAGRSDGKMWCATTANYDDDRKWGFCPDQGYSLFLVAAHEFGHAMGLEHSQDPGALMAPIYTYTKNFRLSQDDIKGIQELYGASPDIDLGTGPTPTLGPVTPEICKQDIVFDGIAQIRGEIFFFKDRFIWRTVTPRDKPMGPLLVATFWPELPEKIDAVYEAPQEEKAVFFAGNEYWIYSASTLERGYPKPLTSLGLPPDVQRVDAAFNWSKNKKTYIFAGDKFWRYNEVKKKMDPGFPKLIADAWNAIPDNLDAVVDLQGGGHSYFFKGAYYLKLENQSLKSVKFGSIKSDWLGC

T5: ADAMTS5 (human, UniProt Q9UNA0 262-622, limits assumed)
T5 sequence (looked up): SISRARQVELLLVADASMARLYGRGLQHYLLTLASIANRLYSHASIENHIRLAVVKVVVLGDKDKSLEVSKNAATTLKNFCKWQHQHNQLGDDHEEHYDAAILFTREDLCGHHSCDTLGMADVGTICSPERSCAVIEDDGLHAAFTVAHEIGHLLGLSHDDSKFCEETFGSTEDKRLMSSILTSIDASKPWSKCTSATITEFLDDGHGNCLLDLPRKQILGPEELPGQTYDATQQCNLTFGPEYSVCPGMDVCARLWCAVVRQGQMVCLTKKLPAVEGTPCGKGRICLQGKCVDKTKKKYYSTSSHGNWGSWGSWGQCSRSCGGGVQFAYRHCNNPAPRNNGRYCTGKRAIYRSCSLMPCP


Legend:
Experiment in all cases: cell-based or functional assay
[1] = target: chymotrypsin
[2] = target: Elastase
[3] = target: bovine trypsin (bovine, UniProt P00760 24-246)
[4] = target: T1, Cathepsin G
[5] = target: MMP13 (human, UniProt P45452 104-471, limits assumed)
[6] = target: MMP9 (human, UniProt P14780 107-707, limits assumed)
[7] = target: MMP8 (human, UniProt P22894 101-467, limits assumed)
[8] = target: T2, ADAMTS4
[9] = target: MMP12 (human, UniProt P39900 106-470, limits assumed)
[10] = target: T3, MMP1
[11] = target: T4, MMP2
[12] = target: T5, ADAMTS5
[13] = target: MMP3 (human, UniProt P08254 100-477, limits assumed)
Chain of MMP3 (P08254 100-477 limits assumed): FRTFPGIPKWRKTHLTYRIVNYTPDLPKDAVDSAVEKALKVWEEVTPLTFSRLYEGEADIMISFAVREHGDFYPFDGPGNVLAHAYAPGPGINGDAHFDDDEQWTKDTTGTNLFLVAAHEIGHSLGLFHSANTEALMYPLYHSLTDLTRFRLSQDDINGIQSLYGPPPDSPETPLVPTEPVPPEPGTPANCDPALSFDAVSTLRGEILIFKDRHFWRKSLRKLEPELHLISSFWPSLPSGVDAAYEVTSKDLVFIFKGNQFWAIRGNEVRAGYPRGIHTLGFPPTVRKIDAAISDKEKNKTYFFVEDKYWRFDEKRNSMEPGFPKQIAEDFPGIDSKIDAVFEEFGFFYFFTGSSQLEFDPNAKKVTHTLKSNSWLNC

Chain of bovine trypsin (P00760 24-246): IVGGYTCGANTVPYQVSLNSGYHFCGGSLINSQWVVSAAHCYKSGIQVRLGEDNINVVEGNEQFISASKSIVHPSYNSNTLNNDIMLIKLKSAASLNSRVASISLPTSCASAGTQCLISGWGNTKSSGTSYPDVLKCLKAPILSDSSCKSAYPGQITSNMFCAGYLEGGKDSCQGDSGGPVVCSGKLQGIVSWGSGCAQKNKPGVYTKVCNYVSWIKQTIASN
Chain of MMP9 (P14780 107-707 limits assumed): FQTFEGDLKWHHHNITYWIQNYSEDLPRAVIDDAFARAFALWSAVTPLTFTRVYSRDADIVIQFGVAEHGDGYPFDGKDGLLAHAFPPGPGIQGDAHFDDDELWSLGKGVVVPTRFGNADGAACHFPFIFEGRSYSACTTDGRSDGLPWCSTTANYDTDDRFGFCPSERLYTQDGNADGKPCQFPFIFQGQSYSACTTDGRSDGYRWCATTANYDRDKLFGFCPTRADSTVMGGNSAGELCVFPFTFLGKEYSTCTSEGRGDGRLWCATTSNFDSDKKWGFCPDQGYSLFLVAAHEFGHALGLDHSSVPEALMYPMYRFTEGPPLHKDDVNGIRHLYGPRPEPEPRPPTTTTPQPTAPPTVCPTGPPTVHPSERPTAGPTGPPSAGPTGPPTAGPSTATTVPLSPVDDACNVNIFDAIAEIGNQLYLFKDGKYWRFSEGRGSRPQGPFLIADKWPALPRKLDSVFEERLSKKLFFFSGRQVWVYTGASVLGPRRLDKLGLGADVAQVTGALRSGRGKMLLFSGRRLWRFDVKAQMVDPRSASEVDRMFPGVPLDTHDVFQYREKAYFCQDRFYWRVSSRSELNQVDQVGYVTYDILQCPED
Chain of MMP12 (P39900 106-470 limits assumed): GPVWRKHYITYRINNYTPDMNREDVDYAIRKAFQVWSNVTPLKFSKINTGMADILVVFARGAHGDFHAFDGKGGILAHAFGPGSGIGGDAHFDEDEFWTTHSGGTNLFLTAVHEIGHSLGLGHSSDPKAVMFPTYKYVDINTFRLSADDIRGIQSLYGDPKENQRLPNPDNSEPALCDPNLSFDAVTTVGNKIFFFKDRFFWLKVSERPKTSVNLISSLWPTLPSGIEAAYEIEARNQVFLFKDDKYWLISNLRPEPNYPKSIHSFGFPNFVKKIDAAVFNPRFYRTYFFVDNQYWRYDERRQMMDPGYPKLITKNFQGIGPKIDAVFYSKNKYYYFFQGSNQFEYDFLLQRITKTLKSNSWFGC
Chain of MMP8 (P22894 101-467 limits assumed): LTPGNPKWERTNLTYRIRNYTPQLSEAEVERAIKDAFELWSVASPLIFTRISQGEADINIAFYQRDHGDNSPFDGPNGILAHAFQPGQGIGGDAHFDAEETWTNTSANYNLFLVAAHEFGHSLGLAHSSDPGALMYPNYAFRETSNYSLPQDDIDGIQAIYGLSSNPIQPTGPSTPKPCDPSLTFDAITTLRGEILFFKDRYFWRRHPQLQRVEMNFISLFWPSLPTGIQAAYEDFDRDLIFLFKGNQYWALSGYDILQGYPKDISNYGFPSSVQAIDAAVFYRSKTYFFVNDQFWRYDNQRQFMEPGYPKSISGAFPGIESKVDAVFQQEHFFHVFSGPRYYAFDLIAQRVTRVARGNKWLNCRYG

Protease Inhibition (% of WT) [1]	Protease Inhibition (% of WT) [2]	Protease Inhibition (% of WT) [3]	Protease Inhibition (% of WT) [4]	Protease Inhibition (% of WT) [5]	Protease Inhibition (% of WT) [6]	Protease Inhibition (% of WT) [7]	Protease Inhibition (% of WT) [8]	Protease Inhibition (% of WT) [9]	Protease Inhibition (% of WT) [10]	Protease Inhibition (% of WT) [11]	Protease Inhibition (% of WT) [12]	Protease Inhibition (% of WT) [13]	Binder
100 % of WT	103 % of WT	250 % of WT	311 % of WT	146 % of WT	100 % of WT	180 % of WT	110 % of WT	124 % of WT	283 % of WT	109 % of WT	211 % of WT		Variant A2M, bait region SEQ ID NO 130 (other) SVSGKPQYMVLVPSLLHTETTEKGCVLLSYLNETVTVSASLESVRGNRSLFTDLEAENDVLHCVAFAVPKSSSNEEVMFLTVQVKGPTQEFKKRTTVMVKNEDSLVFVQTDKSIYKPGQTVKFRVVSMDENFHPLNELIPLVYIQDPKGNRIAQWQSFQLEGGLKQFSFPLSSEPFQGSYKVVVQKKSGGRTEHPFTVEEFVLPKFEVQVTVPKIITILEEEMNVSVCGLYTYGKPVPGHVTVSICRKYSDASDCHGEDSQAFCEKFSGQLNSHGCFYQQVKTKVFQLKRKEYEMKLHTEAQIQEEGTVVELTGRQSSEITRTITKLSFVKVDSHFRQGIPFFGQVRLVDGKGVPIPNKVIFIRGNEANYYSNATTDEHGLVQFSINTTNVMGTSLTVRVNYKDRSPCYGYQWVSEEHEEAHHTAYLVFSPSKSFVHLEPMSHELPCGHTQTVQAHYILNGGTLLGLKKLSFYYLIMAKGGIVRTGTHGLLVKQEDMKGHFSISIPVKSDIAPVARLLIYAVLPTGDVIGDSAKYDVENCLANKVDLSFSPSQSLPASHAHLRVTAAPQSVCALRAVDQSVLLMKPDAELSASSVYNLLPEKDLTGFPGPLNDQDDEDCINRHNVYINGITYTPVSSTNEKDMYSFLEDMGLKAFTNSKIRKPKMCPQLEQYEMHGPSEDLVVQIEGEGEGEGIPENFFGVEAIPMSIPTVEEPHTKLRKYFPETWIWDLVVVNSAGVAEVGVTVPDTITEWKAGAFCLSEDAGLGISSTASLRAFQPFFVELTMPYSVIRGEAFTLKATVLNYLPKCIRVSVQLEASPAFLAVPVEKEQAPHCICANGRQTVSWAVTPKSLGNVNFTVSAEALESQELCGTEVPSVPEHGRKDTVIKPLLVEPEGLEKETTFNSLLCPSGGEVSEELSLKLPPNVVEESARASVSVLGDILGSAMQNTQNLLQMPYGCGEQNMVLFAPNIYVLDYLNETQQLTPEIKSKAIGYLNTGYQRQLNYKHYDGSYSTFGERYGRNQGNTWLTAFVLKTFAQARAYIFIDEAHITQALIWLSQRQKDNGCFRSSGSLLNNAIKGGVEDEVTLSAYITIALLEIPLTVTHPVVRNALFCLESAWKTAQEGDHGSHVYTKALLAYAFALAGNQDKRKEVLKSLNEEAVKKDNSVHWERPQKPKAPVGHFYEPQAPSAEVEMTSYVLLAYLTAQPAPTSEDLTSATNIVKWITKQQNAQGGFSSTQDTVVALHALSKYGAATFTRTGKAAQVTIQSSGTFSSKFQVDNNNRLLLQQVSLPELPGEYSMKVTGEGCVYLQTSLKYNILPEKEEFPFALGVQTLPQTCDEPKAHTSFQISLSVSYTGSRSASNMAIVDVKMVSGFIPLKPTVKMLERSNHVSRTEVSSNHVLIYLDKVSNQTLSLFFTVLQDVPVRDLKPAIVKVYDYYETDEFAIAEYNAPCSKDLGNADYKDDDDKGASHHHHHH
71 % of WT	75 % of WT	100 % of WT		720 % of WT	60 % of WT	350 % of WT	70 % of WT	100 % of WT	180 % of WT	120 % of WT	250 % of WT	170 % of WT	Variant A2M, bait region SEQ ID NO 84 (other) SVSGKPQYMVLVPSLLHTETTEKGCVLLSYLNETVTVSASLESVRGNRSLFTDLEAENDVLHCVAFAVPKSSSNEEVMFLTVQVKGPTQEFKKRTTVMVKNEDSLVFVQTDKSIYKPGQTVKFRVVSMDENFHPLNELIPLVYIQDPKGNRIAQWQSFQLEGGLKQFSFPLSSEPFQGSYKVVVQKKSGGRTEHPFTVEEFVLPKFEVQVTVPKIITILEEEMNVSVCGLYTYGKPVPGHVTVSICRKYSDASDCHGEDSQAFCEKFSGQLNSHGCFYQQVKTKVFQLKRKEYEMKLHTEAQIQEEGTVVELTGRQSSEITRTITKLSFVKVDSHFRQGIPFFGQVRLVDGKGVPIPNKVIFIRGNEANYYSNATTDEHGLVQFSINTTNVMGTSLTVRVNYKDRSPCYGYQWVSEEHEEAHHTAYLVFSPSKSFVHLEPMSHELPCGHTQTVQAHYILNGGTLLGLKKLSFYYLIMAKGGIVRTGTHGLLVKQEDMKGHFSISIPVKSDIAPVARLLIYAVLPTGDVIGDSAKYDVENCLANKVDLSFSPSQSLPASHAHLRVTAAPQSVCALRAVDQSVLLMKPDAELSASSVYNLLPEKDLTGFPGPLNDQDDEDCINRHNVYINGITYTPVSSTNEKDMYSFLEDMGLKAFTNSKIRKPKMCPQLEQYEMHGPEGLRVGKEEEGLGSIPENFFGVSELEGRGSKLRKYFPETWIWDLVVVNSAGVAEVGVTVPDTITEWKAGAFCLSEDAGLGISSTASLRAFQPFFVELTMPYSVIRGEAFTLKATVLNYLPKCIRVSVQLEASPAFLAVPVEKEQAPHCICANGRQTVSWAVTPKSLGNVNFTVSAEALESQELCGTEVPSVPEHGRKDTVIKPLLVEPEGLEKETTFNSLLCPSGGEVSEELSLKLPPNVVEESARASVSVLGDILGSAMQNTQNLLQMPYGCGEQNMVLFAPNIYVLDYLNETQQLTPEIKSKAIGYLNTGYQRQLNYKHYDGSYSTFGERYGRNQGNTWLTAFVLKTFAQARAYIFIDEAHITQALIWLSQRQKDNGCFRSSGSLLNNAIKGGVEDEVTLSAYITIALLEIPLTVTHPVVRNALFCLESAWKTAQEGDHGSHVYTKALLAYAFALAGNQDKRKEVLKSLNEEAVKKDNSVHWERPQKPKAPVGHFYEPQAPSAEVEMTSYVLLAYLTAQPAPTSEDLTSATNIVKWITKQQNAQGGFSSTQDTVVALHALSKYGAATFTRTGKAAQVTIQSSGTFSSKFQVDNNNRLLLQQVSLPELPGEYSMKVTGEGCVYLQTSLKYNILPEKEEFPFALGVQTLPQTCDEPKAHTSFQISLSVSYTGSRSASNMAIVDVKMVSGFIPLKPTVKMLERSNHVSRTEVSSNHVLIYLDKVSNQTLSLFFTVLQDVPVRDLKPAIVKVYDYYETDEFAIAEYNAPCSKDLGNADYKDDDDKGASHHHHHH
